For the assay, the target named is 14-3-3β (UniProt P31946). The experiment in a line: GST-14-3-3β pull-down from cell lysate. Particulars: reference: wild type; sites T181.

On to XLF (from UniProt Q9H9Q4) T181A, for which the “binding against the reference” value is reported as “lost”.

The values are drawn from paper PMC4336609.
